This passage reports koff results from paper PMC11101478 (2024).

Bounds are passed on as bounds.

Common to all, as to assay: BLI
(Biolayer interferometry detects binding as a change in optical thickness at a sensor tip.)

In assay [1] the target is E. coli LamB (E. coli, UniProt P02943 26-446).
In assay [2] the target is Shigella sonnei 3070 LamB (Shigella sonnei 3070, UniProt Q3YUU9 26-446).
Assay [3] deals with E. coli LamB A384S (E. coli, UniProt P02943 26-446, A384S).

B1: gpJ713 (C-terminal truncation of bacteriophage lambda gpJ, starting from residue 713) (domain or fragment)
chain: APAAPSRIELTPGYFQITATPHLAVYDPTVQFEFWFSEKQIADIRQVETSTRYLGTALYWIAASINIKPGHDYYFYIRSVNTVGKSAFVEAVGRASDDAEGYLDFFKGKITESHLGKELLEKVELTEDNASRLEEFSKEWKDASDKWNAMWAVKIEQTKDGKHYVAGIGLSMEDTEEGKLSQFLVAANRIAFIDPANGNETPMFVAQGNQIFMNDVFLKRLTAPTITSGGNPPAFSLTPDGKLTAKNADISGSVNANSGTLSNVTIAENCTINGTLRAEKIVGDIVKAASAAFPRQRESSVDWPSGTRTVTVTDDHPFDRQIVVLPLTFRGSKRTVSGRTTYSMCYLKVLMNGAVIYDGAANEAVQVFSRIVDMPAGRGNVILTFTLTSTRHSADIPPYTFASDVQVMVIKKQALGISVV
As usually defined, the koff is a measure of how fast the partners let go of each other. Take B1: the dissociation rate constant (koff) is 0.00427 s⁻¹ in assay [1], below 1e-07 s⁻¹ in assay [2] and below 1e-07 s⁻¹ in assay [3].
